Experimental findings from US10919943B2, “Mutant proteins enabling agrochemical control of plant gene expression” (The Regents of the University of California, priority 2016, dated 2021) are described below.

Substitutions are numbered along the chain they refer to. Names may count otherwise.

The test system of this experiment is HAB1. The experiment in a line: Yeast two hybrid of pBD-PYR1 site saturation mutants with pACT-HAB1 on 10 μM ABA, β-galactosidase staining. As to conditions: S. cerevisiae Y190, 10 μM ABA; dead = lack of visible staining in comparison to wild type control. Also noted: key: x: Mutations in PYR1 that disrupt ABA-induced binding to PYR1 to HAB1. Type of experiment: cell-based, Arabidopsis. An excerpt: To systematically identify mutations in PYR1 that disrupt its binding to HAB1, we utilized a collection of saturating mutations that contain all possible single amino acid substitutions in 24 conserved interface residues involved in binding HAB1, which was previously constructed for the purpose of engineering constitutively active ABA receptor variants (Mosquna et al., 2011). The interface residues previously mutagenized in this collection are the following: H60, F61, I62, K63, I84, S85, G86, L87, P88, A89, H115, R116, L117, P148, G150, N151, D154, D155, T156, M158, F159, T162, L166, K170. This set was made by mutagenizing a pBD-PYR1 template that encodes a GAL4-DNA binding domain fusion to PYR1, which can be used to assess receptor-HAB1 binding in S. cerevisiae strains co-transformed with pACT-HAB1, which expresses a GAL4 activation domain fusion to HAB1. Mutant pBD-PYR1 clones from the collection are maintained in S. cerevisiae strain Y190 co-transformed with pACT-HAB1. The test strains were spotted onto agar plates containing synthetic dextrose dropout media lacking leucine and tryptophan [SD (-Leu, -Trp)] medium supplemented with 10 μM ABA. After incubating the test plates at 30° C. for two days, colonies were chloroform lysed and stained to reveal […] expression levels and “dead” mutants were defined by lack of visible staining in comparison to a wild type control. This effort defined 237 mutations that disrupt ABA-induced binding of PYR1 to HAB1 (Table 1). Premade yeast drop out supplements (Clontech) were utilized in this and other examples for media preparation, amino acids and other standard chemicals were purchased from Sigma-Aldrich (USA). The naturally occurring (+)-ABA isomer was used in all experiments and purchased from Biosynth Ag (Switzerland).

B1: A89N: PYR1 mutant (protein, UniProt O49686 1-191, looked up, variant A89N)
Abscisic acid receptor PYR1: MPSELTPEERSELKNSIAEFHTYQLDPGSCSSLHAQRIHAPPELVWSIVRRFDKPQTYKHFIKSCSVEQNFEMRVGCTRDVIVISGLPNNTSTERLDILDDERRVTGFSIIGGEHRLTNYKSVTTVHRFEKENRIWTVVLESYVVDMPEGNSEDDTRMFADTVVKLNLQKLATVAEAMARNSGDGSGSQVT
For B1, the “Mutations in PYR1 that disrupt ABA-induced binding to PYR1 to HAB1” value (shortened to “Mutations”) is “x”.

B2: H115L: PYR1 mutant (protein, UniProt O49686 1-191, looked up, variant H115L)
Abscisic acid receptor PYR1: B1 Abscisic acid receptor PYR1 with N89A, H115L
Consider B2, for which the “Mutations” value is “x”.

B3: H115W: PYR1 mutant (protein, UniProt O49686 1-191, looked up, variant H115W)
Abscisic acid receptor PYR1: B1 Abscisic acid receptor PYR1 with N89A, H115W
In the case of B3, the “Mutations” value is on record as “x”.

B4: A89C: PYR1 mutant (protein, UniProt O49686 1-191, looked up, variant A89C)
Abscisic acid receptor PYR1: B1 Abscisic acid receptor PYR1 with N89C
As to B4, the “Mutations” value is “x”.

B5: A89P: PYR1 mutant (protein, UniProt O49686 1-191, looked up, variant A89P)
Abscisic acid receptor PYR1: B1 Abscisic acid receptor PYR1 with N89P
As to B5, the “Mutations” value is reported as “x”.

B6: A89K: PYR1 mutant (protein, UniProt O49686 1-191, looked up, variant A89K)
Abscisic acid receptor PYR1: B1 Abscisic acid receptor PYR1 with N89K
For B6, the “Mutations” value was “x”.

B7: H115K: PYR1 mutant (protein, UniProt O49686 1-191, looked up, variant H115K)
Abscisic acid receptor PYR1: B1 Abscisic acid receptor PYR1 with N89A, H115K
Turning to B7, the “Mutations” value is on record as “x”.

B8: A89T: PYR1 mutant (protein, UniProt O49686 1-191, looked up, variant A89T)
Abscisic acid receptor PYR1: B1 Abscisic acid receptor PYR1 with N89T
For B8, the “Mutations” value is given as “x”.

B9: H115M: PYR1 mutant (protein, UniProt O49686 1-191, looked up, variant H115M)
Abscisic acid receptor PYR1: B1 Abscisic acid receptor PYR1 with N89A, H115M
In the case of B9, the “Mutations” value is listed as “x”.

B10: H115A: PYR1 mutant (protein, UniProt O49686 1-191, looked up, variant H115A)
Abscisic acid receptor PYR1: B1 Abscisic acid receptor PYR1 with N89A, H115A
Regarding B10, the “Mutations” value is “x”.

B11: R116P: PYR1 mutant (protein, UniProt O49686 1-191, looked up, variant R116P)
Abscisic acid receptor PYR1: B1 Abscisic acid receptor PYR1 with N89A, R116P
Consider B11, for which the “Mutations” value is given as “x”.

B12: H115R: PYR1 mutant (protein, UniProt O49686 1-191, looked up, variant H115R)
Abscisic acid receptor PYR1: B1 Abscisic acid receptor PYR1 with N89A, H115R
Turning to B12, the “Mutations” value is reported as “x”.

B13: H115I: PYR1 mutant (protein, UniProt O49686 1-191, looked up, variant H115I)
Abscisic acid receptor PYR1: B1 Abscisic acid receptor PYR1 with N89A, H115I
Turning to B13, the “Mutations” value was “x”.

B14: R116T: PYR1 mutant (protein, UniProt O49686 1-191, looked up, variant R116T)
Abscisic acid receptor PYR1: B1 Abscisic acid receptor PYR1 with N89A, R116T
For B14, the “Mutations” value is “x”.

B15: A89I: PYR1 mutant (protein, UniProt O49686 1-191, looked up, variant A89I)
Abscisic acid receptor PYR1: B1 Abscisic acid receptor PYR1 with N89I
For B15, the “Mutations” value is “x”.

B16: H115Q: PYR1 mutant (protein, UniProt O49686 1-191, looked up, variant H115Q)
Abscisic acid receptor PYR1: B1 Abscisic acid receptor PYR1 with N89A, H115Q
Consider B16, for which the “Mutations” value was “x”.

B17: H115S: PYR1 mutant (protein, UniProt O49686 1-191, looked up, variant H115S)
Abscisic acid receptor PYR1: B1 Abscisic acid receptor PYR1 with N89A, H115S
For B17, the “Mutations” value is “x”.

B18: A89D: PYR1 mutant (protein, UniProt O49686 1-191, looked up, variant A89D)
Abscisic acid receptor PYR1: B1 Abscisic acid receptor PYR1 with N89D
Consider B18, for which the “Mutations” value was “x”.

B19: H115D: PYR1 mutant (protein, UniProt O49686 1-191, looked up, variant H115D)
Abscisic acid receptor PYR1: B1 Abscisic acid receptor PYR1 with N89A, H115D
As to B19, the “Mutations” value is “x”.

B20: A89E: PYR1 mutant (protein, UniProt O49686 1-191, looked up, variant A89E)
Abscisic acid receptor PYR1: B1 Abscisic acid receptor PYR1 with N89E
Consider B20, for which the “Mutations” value is recorded as “x”.

B21: A89V: PYR1 mutant (protein, UniProt O49686 1-191, looked up, variant A89V)
Abscisic acid receptor PYR1: B1 Abscisic acid receptor PYR1 with N89V
On to B21, for which the “Mutations” value is reported as “x”.

B22: A89R: PYR1 mutant (protein, UniProt O49686 1-191, looked up, variant A89R)
Abscisic acid receptor PYR1: B1 Abscisic acid receptor PYR1 with N89R
As to B22, the “Mutations” value is on record as “x”.

B23: A89H: PYR1 mutant (protein, UniProt O49686 1-191, looked up, variant A89H)
Abscisic acid receptor PYR1: B1 Abscisic acid receptor PYR1 with N89H
For the molecule B23, the “Mutations” value is on record as “x”.

B24: R116V: PYR1 mutant (protein, UniProt O49686 1-191, looked up, variant R116V)
Abscisic acid receptor PYR1: B1 Abscisic acid receptor PYR1 with N89A, R116V
For the molecule B24, the “Mutations” value is on record as “x”.

B25: H115F: PYR1 mutant (protein, UniProt O49686 1-191, looked up, variant H115F)
Abscisic acid receptor PYR1: B1 Abscisic acid receptor PYR1 with N89A, H115F
In the case of B25, the “Mutations” value is on record as “x”.

B26: H115Y: PYR1 mutant (protein, UniProt O49686 1-191, looked up, variant H115Y)
Abscisic acid receptor PYR1: B1 Abscisic acid receptor PYR1 with N89A, H115Y
Consider B26, for which the “Mutations” value is on record as “x”.

B27: A89Q: PYR1 mutant (protein, UniProt O49686 1-191, looked up, variant A89Q)
Abscisic acid receptor PYR1: B1 Abscisic acid receptor PYR1 with N89Q
Turning to B27, the “Mutations” value was “x”.

B28: A89S: PYR1 mutant (protein, UniProt O49686 1-191, looked up, variant A89S)
Abscisic acid receptor PYR1: B1 Abscisic acid receptor PYR1 with N89S
As for B28, the “Mutations” value is “x”.

B29: H115P: PYR1 mutant (protein, UniProt O49686 1-191, looked up, variant H115P)
Abscisic acid receptor PYR1: B1 Abscisic acid receptor PYR1 with N89A, H115P
For B29, the “Mutations” value is recorded as “x”.

B30: H115V: PYR1 mutant (protein, UniProt O49686 1-191, looked up, variant H115V)
Abscisic acid receptor PYR1: B1 Abscisic acid receptor PYR1 with N89A, H115V
Regarding B30, the “Mutations” value was “x”.

B31: H115G: PYR1 mutant (protein, UniProt O49686 1-191, looked up, variant H115G)
Abscisic acid receptor PYR1: B1 Abscisic acid receptor PYR1 with N89A, H115G
For B31, the “Mutations” value was “x”.

B32: H115T: PYR1 mutant (protein, UniProt O49686 1-191, looked up, variant H115T)
Abscisic acid receptor PYR1: B1 Abscisic acid receptor PYR1 with N89A, H115T
As to B32, the “Mutations” value was “x”.

B33: R116S: PYR1 mutant (protein, UniProt O49686 1-191, looked up, variant R116S)
Abscisic acid receptor PYR1: B1 Abscisic acid receptor PYR1 with N89A, R116S
Turning to B33, the “Mutations” value is given as “x”.

B34: A89Y: PYR1 mutant (protein, UniProt O49686 1-191, looked up, variant A89Y)
Abscisic acid receptor PYR1: B1 Abscisic acid receptor PYR1 with N89Y
On to B34, for which the “Mutations” value is “x”.

B35: H115C: PYR1 mutant (protein, UniProt O49686 1-191, looked up, variant H115C)
Abscisic acid receptor PYR1: B1 Abscisic acid receptor PYR1 with N89A, H115C
B35: the “Mutations” value is on record as “x”.

B36: H115E: PYR1 mutant (protein, UniProt O49686 1-191, looked up, variant H115E)
Abscisic acid receptor PYR1: B1 Abscisic acid receptor PYR1 with N89A, H115E
In the case of B36, the “Mutations” value was “x”.

B37: A89F: PYR1 mutant (protein, UniProt O49686 1-191, looked up, variant A89F)
Abscisic acid receptor PYR1: B1 Abscisic acid receptor PYR1 with N89F
Regarding B37, the “Mutations” value is on record as “x”.

B38: R116A: PYR1 mutant (protein, UniProt O49686 1-191, looked up, variant R116A)
Abscisic acid receptor PYR1: B1 Abscisic acid receptor PYR1 with N89A, R116A
With B38, the “Mutations” value is “x”.
